The values that follow come from the supplement of paper PMC12042874.

± gives the uncertainty stated by the source.

The data set is described as follows: amyloid nucleation score (Sup35N fusion, yeast selection) (log enrichment); library NNK1; higher = more nucleation; inactive = no reads after selection. In short, it runs like this:
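After 24 hours of induction with 100 μM copper sulfate, psi-negative yeast expressing peptides of 20 random codons fused to Sup35N were grown for 7 days at 30°C on medium lacking adenine and uracil. Input and output plasmid inserts were sequenced with Illumina, and sequences with under 100 input reads were discarded. Scores for nucleation are the DiMSum log enrichment of output over input reads, centred on the mode score of non-aggregating sequences.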
As to TIQMFAVSTCCFFRFTLHWN, the amyloid nucleation score is -0.598 ± 0.56.

The substance TKGYLWPRKQTAFVWIAMCG registered an amyloid nucleation score of -0.187 ± 0.27.

Substance TKIHLPYCYANLVNHSVQHK had an amyloid nucleation score of 0.704 ± 0.61.

In turn, TKLTSVYMK showed an amyloid nucleation score of -0.355 ± 0.62.

Turning to TKMHCVGGSSRTNKSLWTIY, the amyloid nucleation score came out at 1.08 ± 0.57.

Consider TKTTVHCFSSMIQYCAAPTL, for which the amyloid nucleation score is -0.158 ± 0.73.

Take TKVDRLALSM: the amyloid nucleation score is 0.658 ± 0.59.

Take TKWLLP: the amyloid nucleation score was found to be 0.504 ± 0.57.

TKWTGVFIWSLKAD: the amyloid nucleation score was -0.051 ± 0.84.

On to TLCSSGKGRCLVAVT, for which the amyloid nucleation score was 0.115 ± 1.

Regarding TLDFMLIKLSERLHLRC, the amyloid nucleation score was 0.589 ± 0.3.

On to TLEFLMPSYLFHLGRMVNLS, for which the amyloid nucleation score was -0.927 ± 1.4.

Consider TLFMRVGYR, for which the amyloid nucleation score was 3.87 ± 0.12.

Substance TLGVMEGRNSDSLTVCRVGS returned an amyloid nucleation score of 1.06 ± 0.5.

TLLNGFFATSYCGCFFGSRT displayed an amyloid nucleation score of 3.95 ± 0.13.

TLMGQWGWFSSVAYNNAGIV displayed an amyloid nucleation score of -1.36 ± 0.86.

For the substance TLSIFVLRIGARYNMLSLIQ, the amyloid nucleation score was 0.095 ± 0.59.

TLSISTMIAAVGTLSVCGDM: the amyloid nucleation score turned out to be 0.768 ± 0.16.

Turning to TLSKYQS, the amyloid nucleation score amounted to 0.221 ± 0.53.

With TLTVRRCSCQVQWGLRMFHL, the amyloid nucleation score is -0.653 ± 1.4.

TLVKVRSELYSGRDAYELVS showed an amyloid nucleation score of 0.035 ± 0.26.

As for TMGVTIYGCWCDLNTSLVFG, the amyloid nucleation score is -0.104 ± 0.24.

TMICFVVGFFGIQDKVVKCD showed an amyloid nucleation score of 0.135 ± 0.84.

In the case of TMNNFVLKSAFLKSAFTTGV, the amyloid nucleation score was -1.04 ± 2.1.

For the substance TMSRQHKTGPNGSRAL, the amyloid nucleation score was -0.073 ± 0.79.

Take TMVCFVLDNCICKSLVTTCL: the amyloid nucleation score entry is “inactive”.

As for TNCDVVNSCTFGGNGDY, the amyloid nucleation score was 0.151 ± 1.1.

TNFDGYLFRFHIWRGCLVT came in with an amyloid nucleation score of 0.188 ± 1.

Regarding TNMMYVYFKVI, the amyloid nucleation score result is “inactive”.

TNSFSVGCVRIP: the amyloid nucleation score came out at 0.657 ± 0.68.

As for TNSFYYGSVSTCYSRCNCKF, the amyloid nucleation score came out at 7.362 ± 0.048.

For TNSTISYFARFVVIWLGKIA, the amyloid nucleation score is -0.488 ± 0.86.

For the substance TPCLKQLLLSSLILEGP, the amyloid nucleation score was -0.6 ± 0.64.

TPFGSVMVGYWQPIPLRDLG displayed an amyloid nucleation score of 0.634 ± 0.54.

Turning to TPLYDIWDVSVDLPLPCIFS, the amyloid nucleation score entry is “inactive”.

In turn, TPVTRIILVVVIRVPSGSGY returned an amyloid nucleation score of -1.03 ± 0.8.

TQHRRLVSRSQEFNVTQLKW gave an amyloid nucleation score of 2.3 ± 0.27.

TQLSMWSVRIKISYWVSGGV returned an amyloid nucleation score of 0.804 ± 1.1.

On to TQPMSF, for which the amyloid nucleation score result was “inactive”.

For TQRFFIVRMPSVCNNYYHLA, the amyloid nucleation score is 4.52 ± 0.067.

TQSGVIQDAACPAMGMSNVL yielded an amyloid nucleation score of 0.289 ± 0.66.

Regarding TQSRPLETGCPQLERSGLLA, the amyloid nucleation score was -0.692 ± 0.81.

Take TRCCGFKRGGFVSYWMGSRP: the amyloid nucleation score amounted to 1.01 ± 0.51.

For TRCINVYHPLCI, the amyloid nucleation score is -0.875 ± 0.36.

TRCKTGSLRLNYVDISQPHV registered an amyloid nucleation score of 0.683 ± 0.8.

The substance TRFLGYWADLSICMPSYGCR yielded an amyloid nucleation score of -0.209 ± 1.

As for TRKWEYTSKVRVQRGSVYLL, the amyloid nucleation score was found to be 0.13 ± 0.65.

In turn, TRNLMPSRSFG yielded an amyloid nucleation score of 2.08 ± 0.28.

As for TRPLQYIQ, the amyloid nucleation score was -0.045 ± 1.1.

In the case of TRQYIEVSVNLCYIVVDKKN, the amyloid nucleation score is -0.203 ± 0.39.

For the substance TRWQITDPYSPCTWSCSWTQ, the amyloid nucleation score stood at 0.906 ± 1.

Substance TSCFCI showed an amyloid nucleation score of -0.133 ± 0.33.

On to TSFCGLVAPQLCKFSMRSLE, for which the amyloid nucleation score is -0.504 ± 0.47.

Consider TSFCIETSGSILIELYGCWA, for which the amyloid nucleation score is -0.356 ± 0.5.

Take TSHSCHIVGAFMKKCWFSST: the amyloid nucleation score is -0.057 ± 0.65.

With TSKERSLCSKDVT, the amyloid nucleation score is 0.393 ± 0.55.

TSLYNCRVRRLYFWWLRIML showed an amyloid nucleation score of 1.14 ± 0.7.

Regarding TSNHML, the amyloid nucleation score amounted to 0.226 ± 0.61.

Substance TSNLHTHGSVFDFWG gave an amyloid nucleation score of 0.732 ± 0.55.

Take TSQVSGRHVVSIDWTIWLSL: the amyloid nucleation score was 0.616 ± 0.66.

Substance TSRFPKASKSRLTRDCP registered an amyloid nucleation score of 0.323 ± 0.35.

TSTARISQPDNRVGLNF gave an amyloid nucleation score of -0.032 ± 0.44.

TSTLVMTNKMVLDSVE showed an amyloid nucleation score of -0.543 ± 0.25.

The substance TSVTSVMWPYSPNGYLAVFR returned an amyloid nucleation score of -0.062 ± 1.2.

Turning to TSYGISLPAHP, the amyloid nucleation score was determined as 0.541 ± 0.75.

For TTALDFRMDAMEVFRRFDEA, the amyloid nucleation score was found to be 0.14 ± 0.39.

In the case of TTFTRVTLICSPPVQAKLGR, the amyloid nucleation score worked out at 0.399 ± 0.27.

TTGKFDLFGDYHRGSLYSSV displayed an amyloid nucleation score of -0.768 ± 0.49.

In the case of TTGSGSRSNWWYGSPNYYLS, the amyloid nucleation score was -0.867 ± 0.53.

In the case of TTIAIRVLFQIVMVVSESRS, the amyloid nucleation score is -0.247 ± 0.24.

Take TTIQGRPVNVAAFRTTLLTR: the amyloid nucleation score was -1.11 ± 2.7.

Take TTIYRY: the amyloid nucleation score was determined as 0.234 ± 0.9.

TTLPREYYHRRVSVG showed an amyloid nucleation score of 0.373 ± 0.43.

With TTLVLTADLAVNPRRWWTMI, the amyloid nucleation score came out at 0.373 ± 0.43.

Turning to TTSWDYFGAKEIIRFVMVTC, the amyloid nucleation score was -2.12 ± 2.7.

In turn, TVDGTECCWVDTRNNSRMVK registered an amyloid nucleation score of -0.941 ± 0.78.

As to TVFGVL, the amyloid nucleation score came to 0.705 ± 0.77.

Regarding TVHFSDWMIPNTRLEATCGM, the amyloid nucleation score is 0.158 ± 0.31.

The substance TVHTLSIFFSGRAFAANPFS had an amyloid nucleation score of 2.36 ± 0.16.

On to TVIFMCLTAFGTSGNHIGSR, for which the amyloid nucleation score was -0.776 ± 0.81.

TVIIWDENIWYFGAYAW displayed an amyloid nucleation score of -1.53 ± 0.83.

Regarding TVKSWKFNRFIGLKRSTESL, the amyloid nucleation score is 0.238 ± 0.42.

For TVLDFCFWYAGVVFKYARFV, the amyloid nucleation score is -0.932 ± 0.39.

TVMANKY registered an amyloid nucleation score of -0.16 ± 0.32.

TVNARVGVSIFYYWV: the amyloid nucleation score came out at 0.345 ± 0.93.

The substance TVNCGQSSMWDFWTGLTECG came in with an amyloid nucleation score of -0.22 ± 0.75.

As for TVRQTGRVPMTGLIMFW, the amyloid nucleation score was 1.95 ± 0.19.

On to TVSSLSWDGMPLLPVTLIFS, for which the amyloid nucleation score is -1.01 ± 1.2.

As to TVTLGVPRQCAGTCRMVSLN, the amyloid nucleation score entry was “inactive”.

Substance TVVHPFSYA registered an amyloid nucleation score of 0.487 ± 0.49.

In the case of TVWKSLLHNSAAAGV, the amyloid nucleation score came to 0.109 ± 1.6.

Take TWCIAVVSEILLLHI: the amyloid nucleation score entry was “inactive”.

Substance TWDFSFDQGIKY came in with an amyloid nucleation score of -0.125 ± 0.32.

On to TWIVEELFIGDRLALREGFR, for which the amyloid nucleation score was 0.406 ± 0.63.

On to TWKAIWSEWYRTVPTGVLSN, for which the amyloid nucleation score came out at 0.461 ± 0.42.

TWLYEIHTILMIGGIMRKRG came in with an amyloid nucleation score of 0.734 ± 0.45.

In the case of TWNAFRRLWVTSDGYTRVLT, the amyloid nucleation score was determined as 1.23 ± 0.41.

Take TWQFCDVRL: the amyloid nucleation score was -0.064 ± 0.39.

TWQLNIYMEKFSGVEKSSTV yielded an amyloid nucleation score of 7.841 ± 0.053.

Take TWSRNIINFRIFWYTLFQVH: the amyloid nucleation score was 0.005 ± 0.29.

TYCKASGVR yielded an amyloid nucleation score of 0.371 ± 0.75.

In the case of TYCMYDYRKAVGEGWQFR, the amyloid nucleation score was 0.124 ± 0.38.

TYCNMVITRQRNA registered an amyloid nucleation score of 0.685 ± 0.38.
